The values that follow come from PMC5826766.

The data set relates to CN(CC(=O)O)C(=O)CN. Briefly: concentration-dependent cellular uptake, HPLC-MS/MS, mock-corrected, Km. The format is cell-based, Homo sapiens.

Consider “hPHT1 (human peptide/histidine transporter 1, SLC15A4) (Homo sapiens; L14A/L15A/L318A/V319A)”, for which the Km amounted to 1690 ± 300 µM, the Vmax was determined as 0.0001 µmol/min/mg and the Vmax/Km stood at 0.0592 µL/min/mg.
